Paper PMC11718236, “The Psu protein of phage satellite P4 inhibits transcription termination factor ρ by forced hyper-oligomerization” (Nature Communications, 2023)
Changes are numbered by the printed parent chain. Names may count otherwise.

Key:
[1] = molecular target: T1, Rho (transcription termination factor ρ, wt);Psu (polarity suppression protein) (Escherichia coli;phage satellite P4, UniProt P0AG30;P05460 1-419;1-190, |); test: fluorescence anisotropy; PBS; Psu up to 30 uM dimer has no effect; ADP-BeF3; 20 mM HEPES pH 7.5, 150 mM KCl, 5% glycerol, 5 mM MgCl2, 0.5 mM TCEP; SBS assays with 10 uM unlabeled dC15 and 2 mM ADP-BeF3; probe 5 uM dC15-FAM or 2 uM rU12-FAM; temperature not stated; conditions: protein: recombinant;recombinant; tags: none;none; chain copies: 6;2; label: FAM (fluorescein); single strand
[2] = molecular target: T2, Rho P167L;Psu (polarity suppression protein) (Escherichia coli;phage satellite P4, UniProt P0AG30;P05460 1-419;1-190, P167L|); test: as above; conditions: protein: recombinant;recombinant; tags: none;none; chain copies: 6;2; label: FAM (fluorescein); single strand
[3] = molecular target: T2, Rho P167L;Psu (polarity suppression …); test: fluorescence anisotropy; Psu added to pre-formed ρP167L-dC15-rU12-FAM complex; RNA not displaced; ADP-BeF3; 20 mM HEPES pH 7.5, 150 mM KCl, 5% glycerol, 5 mM MgCl2, 0.5 mM TCEP; SBS assays with 10 uM unlabeled dC15 and 2 mM ADP-BeF3; probe 5 uM dC15-FAM or 2 uM rU12-FAM; temperature not stated; conditions: protein: recombinant;recombinant; tags: none;none; chain copies: 6;2; label: FAM (fluorescein); single strand
[4] = molecular target: T1, Rho (transcription termination factor …); test: fluorescence anisotropy; SBS; IC50 of Psu as inhibitor (very weak inhibition); dC15-blocked PBS; 2 mM ADP-BeF3; 20 mM HEPES pH 7.5, 150 mM KCl, 5% glycerol, 5 mM MgCl2, 0.5 mM TCEP; SBS assays with 10 uM unlabeled dC15 and 2 mM ADP-BeF3; probe 5 uM dC15-FAM or 2 uM rU12-FAM; temperature not stated; conditions: protein: recombinant;recombinant; tags: none;none; chain copies: 6;2; label: FAM (fluorescein); single strand
[5] = molecular target: transcription termination factor ρ P167L variant, non-tagged, purified (E. coli, UniProt P0AG30 1-419, P167L); test: cell-based or functional assay
[6] = molecular target: transcription termination factor ρ (wild type), non-tagged, purified (E. coli, UniProt P0AG30 1-419); test: cell-based or functional assay
[7] = molecular target: the molecule itself; test: cryo-EM structure; ρ^P167L-ATPγS-Psu complexes; 10 mM TRIS-HCl pH 8.0, 120 mM KOAc, 5 mM Mg(OAc)2, 5 µM ZnCl2; 1 mM ATPγS; single-particle analysis

Q: Does CCCCCCCCCCCCCCC (ssDNA) [dC15-FAM] bind [1]?
A: Result: binds

Q: Does CCCCCCCCCCCCCCC (ssDNA) [dC15-FAM] bind [2]?
A: Result: binds

Q: Does UUUUUUUUUUUU (ssRNA) [rU12-FAM] bind [3]?
A: Result: binds

Q: And the IC50 [4]?
A: Its IC50 is 299 µM.

B1: phage satellite P4 polarity suppression protein Psu (wild type), purified (natural protein)
chain: MESTALQQAFDTCQNNKAAWLQRKNELAAAEQEYLRLLSGEGRNVSRLDELRNIIEVRKWQVNQAAGRYIRSHEAVQHISIRDRLNDFMQQHGTALAAALAPELMGYSELTAIARNCAIQRATDALREALLSWLAKGEKINYSAQDSDILTTIGFRPDVASVDDSREKFTPAQNMIFSRKSAQLASRQSV
notes: polarity suppression protein Psu of phage satellite P4; No tag is told for the purified protein; also called Psu^wt; wt Psu; source: E. coli BL21 RIL, purified (ammonium sulfate precipitation, heparin, MonoQ, MonoS, Superdex 75 SEC)
Q: With B1 as the binder, how does the “IC50 of Psu for inhibition of rU12-FAM binding at the SBS of ρ^P167L (fluorescence anisotropy, with ADP-BeF3 and dC15)” value [5] read?
A: The value was 2.8 µM.

Q: What about the “IC50 of inhibition of the RNA-stimulated ATPase activity of ρ^P167L by Psu (TLC, 1 h, 37 °C)” value [5] of the same binder?
A: Its value is 0.8 µM.

Q: What about the “decrease of the ρ^P167L ATPase rate at Psu dimer:ρ hexamer 10:1 and 50:1 (1.5-fold and 4-fold)” value [5] of the same binder?
A: The value was 4 fold.

Q: What about the “IC50 of Psu for inhibition of rU12-FAM binding at the SBS of ρ^wt (fluorescence anisotropy, with ADP-BeF3 and dC15)” value [6] of the same binder?
A: The value was 299 µM.

Q: What about the “IC50 of inhibition of the RNA-stimulated ATPase activity of ρ^wt by Psu (TLC, 1 h, 37 °C)” value [6] of the same binder?
A: The value was 0.9 µM.

Q: And the “decrease of the ρ^wt ATPase rate at Psu dimer:ρ hexamer 10:1 and 50:1 (1.3-fold and 1.6-fold)” value [6]?
A: Its value is 1.6 fold.

Q: And the “stoichiometry N” value [7]?
A: The value was 2.

B2: Psu R43A variant, purified (natural protein, phage satellite P4)
chain: B1 chain with R43A
Q: B2 was tested. Which “IC50 of inhibition of the RNA-stimulated ATPase activity of ρ^P167L by Psu^R43A (TLC, 1 h, 37 °C)” value [5] did it give?
A: Its value is 12.9 µM.
